Test results: patent US11884710B2, “Peptide compounds and methods of use in wound healing” (priority 2013, dated 2024)

Assays:
[1] = system: mouse corneal epithelium abrasion; assay: In vivo model of corneal wound healing; conditions: HB-EGF 250 ng/ml at 0 and 16 hours
Protocol: (§1) The mouse corneal epithelium was removed using the AlgerBrush II (The Alger Company, Inc., Lago Vista, Tex.), and corneal abrasions were treated at 0 hours and 16 hours with peptide 95-122 (10^−5 M), or were left untreated in 0.9% sodium chloride (saline vehicle) Wound healing was monitored at 0, 16, and 24 hours using fluorescein staining and a camera-equipped inverted microscope. Data are represented as the percentage of wound closure at 16 hours and 24 hours and are expressed as means±SEM. The data are representative of at least 6 mice per group. *P<0.05 by unpaired t-test as compared to vehicle (0.9% sodium chloride) treated controls.
as §1, with “II,” for “II (The Alger Company, Inc., Lago Vista, Tex.),”, “0” for “0 hours”, “120-146WH (10^−8 M or 10^−6” for “95-122 (10^−5”, “vehicle control).” for “vehicle)”, “group. ***P<0.001,” for “group.”
(A) The epithelium of the mouse cornea was removed using the AlgerBrush II, and corneal abrasions were treated at 0 and 16 hours with HB-EGF (250 ng/ml), rCAP37 (250 ng/ml), or vehicle control (normal saline). Wound closure was monitored at 0, 16, 24, and 48 hours using fluorescein staining and a camera-equipped inverted microscope. Data are represented as the percentage of wound closure and are expressed as mean±SEM. The data are representative of at least 6 mice per group. The percentage of wound closure in response to treatment was compared to vehicle-treated controls by unpaired t-test, **P<0.01, *P<0.05. (B) Representative images of mouse corneal wounds are shown at 0, 16, 24, and 48 hours following treatment with vehicle, HB-EGF, and CAP37. Black dotted lines indicate the wound edge.
In vivo model of corneal wound healing: The in vivo model of wound healing was carried out using a disposable biopsy punch (2 mm, Miltex, York, Pa.) to demarcate the mouse cornea and a 0.5 mm burr using the AlgerBrush II (The Alger Company, Inc., Lago Vista, Tex.) to remove the corneal epithelium.
In vivo model of wound healing: Mice were anesthetized using ketamine (100 mg/kg; Bionichepharma, LLC., St. Lake Forrest, Ill.) and xylazine ([…]; Rompun; Bayer Corp., Shawnee Mission, Kans.), and the right cornea was wounded as follows. A disposable biopsy punch (2 mm, Miltex, York, Pa.) was used to demarcate the mouse cornea. The corneal epithelium was carefully removed within the 2 mm demarcated area with a 0.5 mm burr using the AlgerBrush II (The Alger Company, Inc., Lago Vista, Tex.). The corneal abrasions were treated at 0 and 16 hours with HB-EGF (250 ng/ml), rCAP37 (250 ng/ml), or vehicle control (0.9% sodium chloride, pH 5.5, Baxter, Deerfield, Ill.). Corneal abrasions were visualized using sterile fluorescein sodium ophthalmic strips USP (FLUORETS®, Chauvin Laboratory, Aubenas, France) dampened with sterile PBS. […] The areas of the open wound were quantitated using ImageJ software (US National Institutes of Health), and the results were reported as the percentage of wound closure.

[2] = system: HCEC monolayers; assay: In vitro scratch assay of HCEC monolayers; type: cell-based, human; conditions: HB-EGF 250 ng/ml
Protocol: (A) HCECs were grown to confluency and scratched using a 10 μl pipette tip. Scratched HCEC monolayers were treated with HB-EGF (250 ng/ml) or rCAP37 (25-2000 ng/ml), or were left untreated in basal Keratinocyte Serum Free Medium (KSFM). Wound closure was monitored at 0, 18, 24, and 48 hours utilizing a camera-equipped inverted microscope. The histogram represents data acquired at 48 hours, and the values are the mean±SEM of the percentage of wound closure. The data are representative of at least 4 independent experiments. The percentage of wound closure in treated monolayers was compared to untreated controls by one-way analysis of variance (ANOVA) followed by Dunnett's multiple comparison test, **P<0.01, *P<0.05. (B) Representative images of scratched monolayers treated with buffer control, HB-EGF, and rCAP37 (at 25, 100, and 250 ng/ml) are shown for each time point. Images were taken at 20× objective.
In vitro model of wound healing: An in vitro scratch assay was used in order to determine the ability of rCAP37 to facilitate corneal wound healing. Human corneal epithelial cells were cultured as described above until they reached a confluent monolayer. Each monolayer was scratched using a 10 μl pipette tip to create two perpendicular lines. Monolayers were treated with heparin binding-epidermal growth factor (HB-EGF, 250 ng/ml; Becton Dickinson), rCAP37 (25-2000 ng/ml), or basal KSFM (Gibco). Wound closure was monitored at 0, 18, 24, and 48 hours utilizing a camera-equipped inverted microscope (TE2000-E; Nikon, Melville, N.Y.). Time-lapse images of in vitro wound closure were obtained using a camera-equipped inverted microscope (TE2000-E; Nikon) from […]. HCEC monolayers were treated with HB-EGF, rCAP37, and basal KSFM as described above. The width of each scratch was quantitated using ImageJ software (US National Institutes of Health, Bethesda, Md.). Results are presented as the percentage of wound closure.

[3] = system: human corneal epithelial cell (HCEC); assay: HCEC chemotaxis, modified Boyden chemotaxis chamber; type: cell-based; conditions: HB-EGF 50 ng/ml; positive control
Protocol: The effect of buffer control (0.1% BSA in Gey's buffer), heparin binding-epidermal growth factor (HB-EGF, 50 ng/ml), recombinant CAP37 (rCAP37, 250 ng/ml), 120-146QH (10^−12M, 10^−10 M, 10^−8 M, 10^−6M, and 10^−4M,) and 120-146QR (10^−10M, 10^−8M, 10^−6M, and 10^−4M) on HCEC chemotaxis was determined by the modified Boyden chemotaxis chamber method. HCEC chemotaxis was measured in response to HB-EGF, rCAP37, and peptides 120-146QH (SEQ ID NO:29) and 120-146QR (SEQ ID NO:28) after incubation for 3 hours at 37° C. Chemotaxis is expressed as a percent migration. The buffer control (no chemoattractant) is arbitrarily assigned the value of 100% migration. Data are expressed as means±SEM and are calculated from 6 observations for each test point. **P<0.01 by Wilcoxon signed-rank test as compared to controls.
Chemotaxis: Chemotaxis assays were performed using the modified Boyden chemotaxis chamber assay. Peptide 120-146QH was used at 10^−4 M, 10^−6 M, 10^−8 M, 10^−10 M, and 10^−12 M, and peptide 120-146QR was used at 10^−4 M, 10^−6 M, 10^−8M, and 10^−10M.

B1: HB-EGF: heparin binding-epidermal growth factor, used as the positive control (protein, UniProt Q99075 63-148, looked up)
Heparin-binding EGF-like …: DLQEADLDLLRVTLSSKPQALATPNKEEHGKRKKKGKGLGKKRDPCLRKYKDFCIHGECKYVKELRAPSCICHPGYHGERCHGLSL
Q: What does the source list for B1?
A: corneal wound closure vs buffer control, in words [1]: significantly higher compared to the buffer control; time to complete closure of scratch wounds ([2]; CAP37 250 ng/ml): ≤ 24 h; percentage wound closure ([2]; positive control): ~88%; migration of HCECs vs buffer control, in words [3]: significant increase in migration
